Results on one molecule are retold here after patent US20040091453, “Pancreatic langerhans beta cell proliferation promoter and apoptosis inhibitor, and screening of candidate compounds for the e drugs” (published 2004).

For this data set, the target named is PARP (poly(ADP-ribose) polymerase), purified (Homo sapiens, UniProt P09874 P09874:2-1014). The data set is described as follows: EMSA; 10 ng PARP; retarded band at position different from nuclear extract complex; room temperature, 2 mM MgCl2, 50 mM NaCl. The note with it: tags: Trevigen Inc; label: 32P. As to the method: Biophys. Acta, 1219, 241-243) and stored at −80° C. until use. GMSA was performed by the method of Garabedian (Garabedian, M. J. et al. Analysis of protein—DNA interactions in Gene Transcription: A practical approach (Hamesm, B. D., and Higgins, S. J. eds.), pp. 243-293, IRL Press, Oxford (1993)). The nuclear extract (10 μg) was incubated in a final volume of 20 μl of buffer containing 20 mM Tris-HCl (pH 7.9), 2 mM MgCl₂, 50 mM NaCl, 2 mM EDTA, 10% glycerol, 0.1% Nonidet P-40, 1 mM DTT, 50 μg/ml bovine serum albumin and 1 μg of poly(dI-dC). After incubation for 10 min at room temperature, 2.5 pmol of double-stranded DNA, previously labeled by an exchange reaction using MEGALABEL™ (Takara Shuzo) and [γ-³²P]ATP (Amersham Pharmacia Biotech), were added and incubated for 30 min at room temperature, then the binding reactions were resolved on pre-run 6% acrylamide gel. When competition experiments were conducted in the presence of 100-fold molar excess of cold probe, an unlabeled competitor was added with the labeled probe. In the supershift assay, 2 μg of anti-Sp1, -Sp2, -Sp3 or -Sp4 antibody (Santa Cruz) were added prior to the addition of the ³²P-probe. […] DNA was detected by immunoblot using an ECL 3′-oligolabelling and detection system (Amersham Pharmacia Biotech). […]
PARP (poly(ADP-ribose) polymerase), purified, sequence (P09874 2-1014, one chain of several): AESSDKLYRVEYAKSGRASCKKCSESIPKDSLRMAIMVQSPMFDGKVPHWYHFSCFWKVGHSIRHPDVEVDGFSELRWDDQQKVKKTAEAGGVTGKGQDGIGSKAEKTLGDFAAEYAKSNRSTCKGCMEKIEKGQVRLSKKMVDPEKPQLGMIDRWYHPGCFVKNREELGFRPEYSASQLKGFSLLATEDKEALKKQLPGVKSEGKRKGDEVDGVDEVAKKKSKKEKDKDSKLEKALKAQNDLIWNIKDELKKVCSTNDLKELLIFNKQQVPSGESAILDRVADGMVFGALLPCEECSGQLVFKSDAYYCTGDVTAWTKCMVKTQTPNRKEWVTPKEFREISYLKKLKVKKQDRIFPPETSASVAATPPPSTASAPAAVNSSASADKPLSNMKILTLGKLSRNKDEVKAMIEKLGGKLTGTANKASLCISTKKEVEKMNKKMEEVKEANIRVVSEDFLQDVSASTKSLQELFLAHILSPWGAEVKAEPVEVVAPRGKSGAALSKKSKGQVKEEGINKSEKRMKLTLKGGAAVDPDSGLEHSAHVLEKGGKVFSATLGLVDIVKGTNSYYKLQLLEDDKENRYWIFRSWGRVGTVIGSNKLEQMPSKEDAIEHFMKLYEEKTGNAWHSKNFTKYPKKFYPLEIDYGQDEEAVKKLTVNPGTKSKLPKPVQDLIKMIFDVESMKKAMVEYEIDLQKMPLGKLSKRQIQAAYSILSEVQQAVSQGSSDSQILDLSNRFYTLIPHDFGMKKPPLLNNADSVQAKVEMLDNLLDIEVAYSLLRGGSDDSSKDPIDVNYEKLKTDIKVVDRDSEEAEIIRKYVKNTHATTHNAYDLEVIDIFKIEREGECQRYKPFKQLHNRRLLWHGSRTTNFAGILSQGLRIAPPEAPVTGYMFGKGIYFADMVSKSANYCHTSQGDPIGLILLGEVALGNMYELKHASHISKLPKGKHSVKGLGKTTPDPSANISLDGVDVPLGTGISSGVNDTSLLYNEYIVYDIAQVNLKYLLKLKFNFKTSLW

B1: Probe 1 (rat Reg -86 to -65) (dsDNA)
DNA 1: TTCCTTGCCCCTCCCATTTTTC
DNA 2: GAAAAATGGGAGGGGCAAGGAA
For B1, the binding result was “binds”.
